Assay results: patent US20230212319A1, “NOVEL ANTIGEN BINDING DOMAINS AND SYNTHETIC ANTIGEN RECEPTORS INCORPORATING THE SAME” (University of Southern California, priority 2020, published 2023)
“Also recorded” adds a separate entry of the source.

Tests used:
Huh-7 cells = assay: JNG NFAT-GFP induction on co-culture with Huh-7
KMH2 (PSMA-low) cells = assay: JNG NFAT-GFP induction on co-culture with KMH2

| Molecule | NFAT-GFP ASSAY: Huh-7 (Huh-7 cells) | NFAT-GFP ASSAY: KMH2 (KMH2 (PSMA-low) cells) |
| --- | --- | --- |
| 21886 (protein) MALPVTALLLPLALLLHAARPDIQMTQSPSSLSASVGDRVTITCKASQDVGTAVDWYQQKPGKAPKLLIYWASTRHTGVPSRFSGSGSGTDFTLTISSLQPEDFATYYCQQYNSYPLTFGQGTKVEIKRLEAEISHTQKATLVCLATGFYPDHVELSWWVNGKEVHSGVCTDPQPLKEQPALNDSRYCLSSRLRVSATFWQNPRNHFRCQVQFYGLSENDEWTQDRAKPVTQIVSAEAWGRADCGFTSESYQQGVLSATILYEILLGKATLYAVLVSALVLMAMVKRKDSRGRAKRSGSGATNFSLLKQAGDVEENPGPTSMDWIWRILFLVGAATGAHSFEVQLVESGGGLVQPGGSLRLSCAASGYTFTEYTIHWVRQAPGKGLEWVANINPNNGGTTYNQKFEDRFTISRDNSKNTLYLQMNSLRAEDTAVYYCARGWNFDYWGQGTLVTVSSTRDKSVCLFTDFDSQTNVSQSKDSDVYITDKCVLDMRSMDFKSNSAVAWSNKSDFACANAFNNSIIPEDTFFPSPESSCDVKLVEKSFETDTNLNFQNLSVIGFRILLLKVAGFNLLMTLRLWSSRAKRSGSGVKQTLNFDLLKLAGDVESNPGPSRGHMTEYKPTVRLATRDDVPRAVRTLAAAFADYPATRHTVDPDRHIERVTELQELFLTRVGLDIGKVWVADDGAAVAVWTTPESVEAGAVFAEIGPRMAELSGSRLAAQQQMEGLLAPHRPKEPAWFLATVGVSPDHQGKGLGSAVVLPGVEAAERAGVPAFLETSAPRNLPFYERLGFTVTADVEVPEGPRTWCMTRKPGA | negligible GFP induction; also recorded: negligible activity | negligible GFP induction; also recorded: negligible activity |
| 21892 (protein) MALPVTALLLPLALLLHAARPDIQMTQSPSSLSASVGDRVTITCKASQDVGTAVDWYQQKPGKAPKLLIYWASTRHTGVPSRFSGSGSGTDFTLTISSLQPEDFATYYCQQYNSYPLTFGQGTKVEIKRLEDLKNVFPPEVAVFEPSEAEISHTQKATLVCLATGFYPDHVELSWWVNGKEVHSGVCTDPQPLKEQPALNDSRYCLSSRLRVSATFWQNPRNHFRCQVQFYGLSENDEWTQDRAKPVTQIVSAEAWGRADCGFTSESYQQGVLSATILYEILLGKATLYAVLVSALVLMAMVKRKDSRGRAKRSGSGATNFSLLKQAGDVEENPGPTSMDWIWRILFLVGAATGAHSFEVQLVESGGGLVQPGGSLRLSCAASGYTFTEYTIHWVRQAPGKGLEWVANINPNNGGTTYNQKFEDRFTISRDNSKNTLYLQMNSLRAEDTAVYYCARGWNFDYWGQGTLVTVSSTRIQNPDPAVYQLRDSKSSDKSVCLFTDFDSQTNVSQSKDSDVYITDKCVLDMRSMDFKSNSAVAWSNKSDFACANAFNNSIIPEDTFFPSPESSCDVKLVEKSFETDTNLNFQNLSVIGFRILLLKVAGFNLLMTLRLWSSRAKRSGSGVKQTLNFDLLKLAGDVESNPGPSRGHMTEYKPTVRLATRDDVPRAVRTLAAAFADYPATRHTVDPDRHIERVTELQELFLTRVGLDIGKVWVADDGAAVAVWTTPESVEAGAVFAEIGPRMAELSGSRLAAQQQMEGLLAPHRPKEPAWFLATVGVSPDHQGKGLGSAVVLPGVEAAERAGVPAFLETSAPRNLPFYERLGFTVTADVEVPEGPRTWCMTRKPGA | negligible GFP induction | negligible GFP induction |
| 21887 (protein) MALPVTALLLPLALLLHAARPDIQMTQSPSSLSASVGDRVTITCKASQDVGTAVDWYQQKPGKAPKLLIYWASTRHTGVPSRFSGSGSGTDFTLTISSLQPEDFATYYCQQYNSYPLTFGQGTKVEIKRLEPSEAEISHTQKATLVCLATGFYPDHVELSWWVNGKEVHSGVCTDPQPLKEQPALNDSRYCLSSRLRVSATFWQNPRNHFRCQVQFYGLSENDEWTQDRAKPVTQIVSAEAWGRADCGFTSESYQQGVLSATILYEILLGKATLYAVLVSALVLMAMVKRKDSRGRAKRSGSGATNFSLLKQAGDVEENPGPTSMDWIWRILFLVGAATGAHSFEVQLVESGGGLVQPGGSLRLSCAASGYTFTEYTIHWVRQAPGKGLEWVANINPNNGGTTYNQKFEDRFTISRDNSKNTLYLQMNSLRAEDTAVYYCARGWNFDYWGQGTLVTVSSTRDKSVCLFTDFDSQTNVSQSKDSDVYITDKCVLDMRSMDFKSNSAVAWSNKSDFACANAFNNSIIPEDTFFPSPESSCDVKLVEKSFETDTNLNFQNLSVIGFRILLLKVAGFNLLMTLRLWSSRAKRSGSGVKQTLNFDLLKLAGDVESNPGPSRGHMTEYKPTVRLATRDDVPRAVRTLAAAFADYPATRHTVDPDRHIERVTELQELFLTRVGLDIGKVWVADDGAAVAVWTTPESVEAGAVFAEIGPRMAELSGSRLAAQQQMEGLLAPHRPKEPAWFLATVGVSPDHQGKGLGSAVVLPGVEAAERAGVPAFLETSAPRNLPFYERLGFTVTADVEVPEGPRTWCMTRKPGA | negligible GFP induction | negligible GFP induction |
| 21884 (protein) MALPVTALLLPLALLLHAARPDIQMTQSPSSLSASVGDRVTITCKASQDVGTAVDWYQQKPGKAPKLLIYWASTRHTGVPSRFSGSGSGTDFTLTISSLQPEDFATYYCQQYNSYPLTFGQGTKVEIKRLETIFLPSIAETKLQKAGTYLCLLEKFFPDVIKIHWQEKKSNTILGSQEGNTMKTNDTYMKFSWLTVPEKSLDKEHRCIVRHENNKNGVDQEIIFPPIKTDVITMDPKDNCSKDANDTLLLQLTNTSAYYMYLLLLLKSVVYFAIITCCLLRRTAFCCNGEKSRAKRSGSGATNFSLLKQAGDVEENPGPTSMDWIWRILFLVGAATGAHSFEVQLVESGGGLVQPGGSLRLSCAASGYTFTEYTIHWVRQAPGKGLEWVANINPNNGGTTYNQKFEDRFTISRDNSKNTLYLQMNSLRAEDTAVYYCARGWNFDYWGQGTLVTVSSTRPHTKPSVFVMKNGTNVACLVKEFYPKDIRINLVSSKKITEFDPAIVISPSGKYNAVKLGKYEDSNSVTCSVQHDNKTVHSTDFEVKTDSTDHVKPKETENTKQPSKSCHKPKAIVHTEKVNMMSLTVLGLRMLFAKTVAVNFLLTAKLFFLRAKRSGSGVKQTLNFDLLKLAGDVESNPGPSRGHMTEYKPTVRLATRDDVPRAVRTLAAAFADYPATRHTVDPDRHIERVTELQELFLTRVGLDIGKVWVADDGAAVAVWTTPESVEAGAVFAEIGPRMAELSGSRLAAQQQMEGLLAPHRPKEPAWFLATVGVSPDHQGKGLGSAVVLPGVEAAERAGVPAFLETSAPRNLPFYERLGFTVTADVEVPEGPRTWCMTRKPGA | negligible GFP induction | negligible GFP induction |
